B1: A14E, A21G, A22(GQEP)12, A70K^, A71P, B25H, B29R, desB30 human insulin/(227A, 234A, 235K hIgG4-Fc(228-447)) … (other)
chain 1: GIVEQCCTSICSLEQLENYCGGQEPGQEPGQEPGQEPGQEPGQEPGQEPGQEPGQEPGQEPGQEPGQEPKP
chain 2: FVNQHLCGSHLVEALYLVCGERGFHYTPR
chain 3: ASCPAPEAKGGPSVFLFPPKPKDTLMISRTPEVTCVVVDVSQEDPEVQFNWYVDGVEVHNAKTKPREEQFNSTYRVVSVLTVLHQDWLNGKEYKCKVSNKGLPSSIEKTISKAKGQPREPQVYTLPPSQEEMTKNQVSLTCLVKGFYPSDIAVEWESNGQPENNYKTTPPVLDSDGSFFLYSRLTVDKSRWQEGNVFSCSVMHEALHNHYTQKSLSLSLGK
modifications: Cys229 (EU numbering) sulphur bound to an acetyl arm of the linker; A70K N(eps) acylated by the trivalent linker 4-[bis[2-[(2-acetyl)amino]ethyl]amino]-4-oxo-butanoyl
notes: also called Ex 5.8
B2: (A14E, A21G, A22(GQAP)18, A94G, A95Q, A96A, A97K^, A98P, B16E, B25H, B29R, desB30 human insulin)/(227A, 234A, 235K, 297E, 315Q, 384Q, des447 hIgG4-Fc(228-447)) … (other)
chain 1: GIVEQCCTSICSLEQLENYCGGQAPGQAPGQAPGQAPGQAPGQAPGQAPGQAPGQAPGQAPGQAPGQAPGQAPGQAPGQAPGQAPGQAPGQAPGQAKP
chain 2: FVNQHLCGSHLVEALELVCGERGFHYTPR
chain 3: ASCPAPEAKGGPSVFLFPPKPKDTLMISRTPEVTCVVVDVSQEDPEVQFNWYVDGVEVHNAKTKPREEQFESTYRVVSVLTVLHQDWLQGKEYKCKVSNKGLPSSIEKTISKAKGQPREPQVYTLPPSQEEMTKNQVSLTCLVKGFYPSDIAVEWESQGQPENNYKTTPPVLDSDGSFFLYSRLTVDKSRWQEGNVFSCSVMHEALHNHYTQKSLSLSLG
modifications: Cys229 (EU numbering) sulphur bound to an acetyl arm of the linker; A97K N(eps) acylated by the trivalent linker 4-[bis[2-[(2-acetyl)amino]ethyl]amino]-4-oxo-butanoyl
B3: (A14E, A21G, A22(GQEP)19, A98K^, A99P, B25H, B29R, desB30 human insulin)/(227A, 234A, 235K hIgG4-Fc(228-447)) … (other)
chain 1: GIVEQCCTSICSLEQLENYCGGQEPGQEPGQEPGQEPGQEPGQEPGQEPGQEPGQEPGQEPGQEPGQEPGQEPGQEPGQEPGQEPGQEPGQEPGQEPKP
chain 2: FVNQHLCGSHLVEALYLVCGERGFHYTPR
chain 3: B1 chain 3
modifications: Cys229 (EU numbering) sulphur bound to an acetyl arm of the linker; A98K N(eps) acylated by the trivalent linker 4-[bis[2-[(2-acetyl)amino]ethyl]amino]-4-oxo-butanoyl
notes: Fc made in E. coli; also called Ex 5.1
B4: A14E, A21G, A22(GQEP)6, A46K^, A47P, B25H, B29R, desB30 human insulin/(227A, 234A, 235K hIgG4-Fc(228-447)) … (other)
chain 1: GIVEQCCTSICSLEQLENYCGGQEPGQEPGQEPGQEPGQEPGQEPKP
chain 2: FVNQHLCGSHLVEALYLVCGERGFHYTPR
chain 3: B1 chain 3
modifications: Cys229 (EU numbering) sulphur bound to an acetyl arm of the linker; A46K N(eps) acylated by the trivalent linker 4-[bis[2-[(2-acetyl)amino]ethyl]amino]-4-oxo-butanoyl
notes: also called Ex 5.7

Key:
[1] = molecular target: T1, insulin receptor A (UniProt P06213-2 28-1370, limits assumed); assay: summary of Table 3; upper end tied by Table 3 to the compound of Example 5.8 (10.58)
T1 sequence (P06213 other isoform, or with tags, fused parts or gaps limits assumed): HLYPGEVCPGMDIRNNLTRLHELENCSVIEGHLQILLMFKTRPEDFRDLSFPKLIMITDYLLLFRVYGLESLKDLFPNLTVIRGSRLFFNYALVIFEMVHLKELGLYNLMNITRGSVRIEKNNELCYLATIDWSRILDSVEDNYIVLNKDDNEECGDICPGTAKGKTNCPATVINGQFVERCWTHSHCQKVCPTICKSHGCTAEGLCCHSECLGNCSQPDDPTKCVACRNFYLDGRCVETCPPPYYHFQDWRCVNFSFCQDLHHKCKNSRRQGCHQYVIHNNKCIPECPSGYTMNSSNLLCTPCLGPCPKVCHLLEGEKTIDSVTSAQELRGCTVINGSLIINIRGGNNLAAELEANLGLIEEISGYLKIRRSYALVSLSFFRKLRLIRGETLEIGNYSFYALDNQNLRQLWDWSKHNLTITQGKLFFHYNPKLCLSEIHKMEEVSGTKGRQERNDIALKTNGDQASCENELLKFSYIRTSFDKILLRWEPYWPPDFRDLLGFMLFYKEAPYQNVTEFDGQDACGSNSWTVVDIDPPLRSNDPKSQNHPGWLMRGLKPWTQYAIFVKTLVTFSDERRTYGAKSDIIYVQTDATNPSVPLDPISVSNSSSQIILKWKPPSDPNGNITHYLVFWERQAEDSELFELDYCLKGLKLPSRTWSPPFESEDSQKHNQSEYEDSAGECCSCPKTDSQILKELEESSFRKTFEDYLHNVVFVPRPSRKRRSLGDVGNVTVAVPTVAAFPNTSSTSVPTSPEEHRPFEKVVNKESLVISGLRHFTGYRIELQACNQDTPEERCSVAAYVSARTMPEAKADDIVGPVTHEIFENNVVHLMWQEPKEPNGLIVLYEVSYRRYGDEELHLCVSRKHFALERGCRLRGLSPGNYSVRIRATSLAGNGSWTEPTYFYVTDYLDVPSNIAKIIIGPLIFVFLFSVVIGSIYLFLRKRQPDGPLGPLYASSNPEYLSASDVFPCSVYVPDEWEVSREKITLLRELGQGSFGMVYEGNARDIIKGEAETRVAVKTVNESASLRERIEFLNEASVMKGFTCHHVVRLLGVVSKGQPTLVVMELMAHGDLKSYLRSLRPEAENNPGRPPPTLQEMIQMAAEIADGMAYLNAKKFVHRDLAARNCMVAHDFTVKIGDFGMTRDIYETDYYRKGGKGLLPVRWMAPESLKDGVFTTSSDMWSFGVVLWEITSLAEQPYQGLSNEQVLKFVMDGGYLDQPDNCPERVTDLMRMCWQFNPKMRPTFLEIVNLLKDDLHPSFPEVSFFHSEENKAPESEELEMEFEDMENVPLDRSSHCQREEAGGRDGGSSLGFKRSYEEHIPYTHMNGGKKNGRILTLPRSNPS

[2] = molecular target: T1, insulin receptor A; assay: insulin receptor binding assay as in Vienberg et al. 2011; relative to human insulin on insulin receptor A (100%)
[3] = molecular target: insulin receptor of isolated rat adipocytes (rat, UniProt P15127 27-1383); assay: cell-based or functional assay
Chain of insulin receptor of isolated rat adipocytes (P15127 27-1383): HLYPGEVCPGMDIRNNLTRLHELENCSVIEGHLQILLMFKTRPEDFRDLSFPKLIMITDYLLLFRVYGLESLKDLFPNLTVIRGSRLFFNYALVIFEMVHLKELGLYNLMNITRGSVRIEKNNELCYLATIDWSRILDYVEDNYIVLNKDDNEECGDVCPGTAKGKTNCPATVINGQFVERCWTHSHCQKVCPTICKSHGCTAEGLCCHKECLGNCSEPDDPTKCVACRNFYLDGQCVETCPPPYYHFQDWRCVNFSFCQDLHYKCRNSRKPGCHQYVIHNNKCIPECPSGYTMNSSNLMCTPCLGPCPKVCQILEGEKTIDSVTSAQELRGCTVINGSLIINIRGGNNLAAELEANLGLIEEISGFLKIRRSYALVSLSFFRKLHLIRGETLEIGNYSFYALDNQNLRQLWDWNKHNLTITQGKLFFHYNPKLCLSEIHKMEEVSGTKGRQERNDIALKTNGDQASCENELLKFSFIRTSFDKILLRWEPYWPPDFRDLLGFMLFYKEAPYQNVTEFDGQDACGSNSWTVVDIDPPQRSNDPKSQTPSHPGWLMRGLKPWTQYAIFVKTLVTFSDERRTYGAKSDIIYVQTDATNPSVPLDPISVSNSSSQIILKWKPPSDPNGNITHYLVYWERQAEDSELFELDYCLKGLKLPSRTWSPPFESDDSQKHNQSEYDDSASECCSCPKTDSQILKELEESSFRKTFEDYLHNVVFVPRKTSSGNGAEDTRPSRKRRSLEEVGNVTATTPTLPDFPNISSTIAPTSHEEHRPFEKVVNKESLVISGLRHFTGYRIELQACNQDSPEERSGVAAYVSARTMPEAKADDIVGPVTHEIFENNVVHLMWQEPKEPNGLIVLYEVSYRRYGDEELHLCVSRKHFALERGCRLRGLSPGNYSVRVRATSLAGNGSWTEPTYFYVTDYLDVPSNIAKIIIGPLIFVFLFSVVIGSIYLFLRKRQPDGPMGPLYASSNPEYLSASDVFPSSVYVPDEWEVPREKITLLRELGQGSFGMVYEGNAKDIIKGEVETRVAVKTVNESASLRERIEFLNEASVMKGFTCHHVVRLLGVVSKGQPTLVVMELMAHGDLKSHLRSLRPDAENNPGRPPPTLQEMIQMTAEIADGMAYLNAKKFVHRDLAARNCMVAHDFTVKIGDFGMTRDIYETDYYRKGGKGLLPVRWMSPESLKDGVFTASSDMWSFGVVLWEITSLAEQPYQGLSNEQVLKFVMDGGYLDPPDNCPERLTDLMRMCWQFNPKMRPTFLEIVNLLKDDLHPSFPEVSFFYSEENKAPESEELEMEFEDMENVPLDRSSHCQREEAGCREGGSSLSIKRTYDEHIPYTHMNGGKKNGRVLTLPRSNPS

[4] = molecular target: T1, insulin receptor A; assay: summary of Table 3; lower end tied by Table 3 to the compound of Example 5.31 (0.47)

Row | Binder | insulin receptor affinity relative to human insulin [1] [%] | Insulin receptor affinity [IC50 relative to HI (%)] [2] [%] | Lipogenesis in rat adipocytes [Potency (%)] Mean Value [3] | insulin receptor affinity relative to human insulin [4] [%]
1 | B1 | 0.5 to 10 | 10.6 | 5.31 % of human insulin | –
2 | B2 | – | 0.47 | 0.6 % of human insulin | 0.5 to 10
3 | B3 | – | 5.07 | 6.69 % of human insulin | –
4 | B4 | – | 2.43 | 1.88 % of human insulin | –

From patent US20200261595A1 (Novo Nordisk, published 2020)
